To fix the notation:
B1: 1H2 (antibody, V domains shown)
VH: QVQLVQSGGGLVKPGGSLRLSCAASGFTFSSYSMNWVRQAPGKGLVWISRIISDGSATTYADSVKGRFTISRDNAKNTLYLQMNSLRAEDTGVYYCARDRSEGGFDPWGQGTLVTVSS
VL: SSELTQDPAVSVALGQTVRITCQGDSLRSYYASWYQQKPGQAPVLVIYGKNNRPSGIPDRFSGSTSGNTASLTITGAQAEDEADYYCNSRDISDNQWQWIFGGGTKLAVL
notes: anti-PD-L1 clone; also called Ab 1H2
B2: 1H5 (antibody, V domains shown)
VH: QVQLVQSGAEVKKPGSSVKVSCKASGGTFSRYALTWVRQAPGQGLEWMGGIIPIFGRANYAQKFQGRVTITADKSTSTAYMELGSLTSDDTAVYYCAEEGAFNSLAIWGQGTMVTVSS
VL: NFMLTQPHSVSGSPGETVTISCTRSSGSIASHFVQWYQQRPGSSPTTVIFGDDQRPSGVPDRISGSIDTSSNSASLSISGLKTEDEADYYCQSYDSSNHVVFGGGTKLTVL
notes: anti-PD-L1 clone; also called Ab 1H5
B3: 1C4 (antibody, V domains shown)
VH: QVQLVQSGAEVKKPGSSVKVSCKASGGTFSRYALTWVRQAPGQGLEWMGGIIPIFGRANYAQKFQGRVTITADKSTSTAYMELGSLTSDDTAVYYCAEEGAFNSLAIWGQGTMVTVSS
VL: NFMLTQPHSVSESPGKTVTISCTRSSGSIASNYVQWYQQRPGSAPTTVIFADNQRPSGVPARFSGSIDSSSNSASLTISGLKTEDEADYYCQSYDSSNHWVFGGGTQLTVL
notes: anti-PD-L1 clone; also called Ab 1C4
B4: 1C1 (antibody, V domains shown)
VH: QVQLVQSGAEVKKPGASVKVSCKASGYTFTSYGISWVRQAPGQGLEWMGWTSPHNGLTAFAQILEGRVTMTTDTSTNTAYMELRNLTFDDTAVYFCAKVHPVFSYALDVWGQGTLVTVSS
VL: NFMLTQPHSVSESPGKTVTISCTRSSGSIASNYVQWYQQRPGSSPTTVIYEDNQRPSGVPDRFSGSIDTSSNSASLTISGLKTKDEADYYCQSYDGITVIFGGGTKLTVL
notes: anti-PD-L1 clone; also called Ab 1C1
B5: 1B4 (antibody, V domains shown)
VH: QVQLVQSGGGLVKPGGSLRLSCVGSDFAFSSAWMNWVRQAPGKGLEWVGRIKSKTDGETTDYAAPVKDRFIISRDDSKNTLYLEMNSLKTEDTGVYYCTTGGLGLVYPYYNYIDVWGEGTTVTVSS
VL: LPVLTQPPSASGTPGQRVTISCSGSSSNIGSNYVYWYQQLPGTAPKLLIYRNNQRPSGVPDRFSGSKSGTSASLAISGLRSEDEADYYCAAWDDSLNGLVFGTGTRVTVL
notes: anti-PD-L1 clone; also called Ab 1B4
B6: 1D4 (antibody, V domains shown)
VH: QVQLVQSGGGVVQPGRSLRLSCAASGFTFSSYAIHWVRQAPGKGLEWITTISYDGSNKYYADSVKGRFTISRDNPKNTLYLQMNSLRAEDTAVYYCARGFGGPDYWGQGTLVTVSS
VL: LPVLTQPSSLSASPGASASLTCTLRSGINVGTYRIYWYQQKPGSPPQYLLRYKSDSDKQQGSGVPSRFSGSKDASANAGILLISGLQSEDEADYYCMIWHSSAYVFGTGTKVTVL
notes: anti-PD-L1 clone; also called Ab 1D4
B7: 1A6 (antibody, V domains shown)
VH: QVQLVQSGGEVKKPGASVKVSCKASGYTLSSHGITWVRQAPGQGLEWMGWISAHNGHASNAQKVEDRVTMTTDTSTNTAYMELRSLTADDTAVYYCARVHAALYYGMDVWGQGTLVTVSS
VL: QSVLTQPPSVSVAPGQTARITCGGNNIGSKGVHWYQQKPGQAPVLVVYDDSDRPSGIPERFSGSNSGNTATLTISRVEAGDEADYYCQVWDSSSDHWVFGGGTKLTVL
notes: anti-PD-L1 clone; also called Ab 1A6
B8: 14C61 (antibody, V domains shown)
VH: EVQLVQSGGEVKKPGASVKVSCKASGYTLSSHGITWVRQAPGQGLEWMGWISAHNGHASNAQKVEDRVTMTTDTSTNTAYMELRSLTPDDTAVYYCARVHAALYYGMDVWGQGTLVTVSS
VL: SYELTQPPSVSVAPRQTAKITCTRDNIESRSVNWYQQRAGQAPAVIVYDDTERPSGITVRYSGSNSGNTATLTISRVEAGDEADYYCQVWDSSGDLWVFGGGTKLTVL
notes: anti-PD-L1 clone; also called Ab 14C61
B9: 1D1 (antibody, V domains shown)
VH: QVQLVQSGAEVKKPGASVKVSCKASGYTFTSYGISWVRQAPGQGLEWMGWISAYNGHASNAQKVEDRVTMTTDTSTNTAYMELRNLTTDDTAVYYCARVHAALYYGMDVWGQGTTVTVSS
VL: SYELTQPPSVSVAPGQTARITCGGDNIGSKGVHWYQQTPGQAPVLVVYDDSDRPSGIPERFSGSKSGNTATLTISRVEAGDEADYYCQVWDSRSDHWVFGGGTRVTVL
notes: anti-PD-L1 clone; also called Ab 1D1
B10: 1E1. (antibody, V domains shown)
VH: QVQLVQSGVEMKKPGASVRVSCKGSGYTFSSYGISWVRQAPGQGLEWMGWISAHNGHASNAQKLEDRVTMTTDTSTNTAYMELRSLTSDDTAVYYCARVHGALYYGMDVWGQGTTVTVSS
VL: SYELTQPPSVSVAPGQTARIPCGANNIGGKSVHWYQQKPGQAPVLVVYDDRDRPSGIPERFSGSNSGNTATLTISRVEAGDEADYYCQVWDSSSDHWVFGGGTKLTVL
notes: anti-PD-L1 clone; also called Ab 1E1
B11: 1A2 (antibody, V domains shown)
VH: QVQLVQSGGEVKKPGASVKVSCKASGYTLSSHGITWVRQAPGQGLEWMGWISAHNGHASNAQKVEDRVTMTTDTSTNTAYMELRSLTADDTAVYYCARVHAALYYGMDVWGQGTTVTVSS
VL: QSVLTQPPSVSVAPGQTARITCGGNNIGSKGVHWYQQKPGQAPVLVVYDDSDRPSGIPERFSGSNSGNTATLTISRVEAGDEADYYCQVWDSSSDHWVFGGGTKLTVL
notes: anti-PD-L1 clone; also called Ab 1A2
B12: 1A3 (antibody, V domains shown)
VH: EVQLVQSGAEVKKPGASVKVSCKASGYTLSSHGITWVRQAPGQGLEWMGWISAHNGHASNAQKVEDRVTMTTDTSTNTAYMELRSLTPDDTAVYYCARVHAALYYGMDVWGQGTLVTVSS
VL: LPVLTQPPSVSVAPGQTARITCGGNNIGSKSVHWYQQKPGQAPVLVVYDDSDRPSGIPERFSGSNSGNTATLTISRVEAGDEADYYCQVWDSSSDHWVFGGGTKLTVL
notes: anti-PD-L1 clone; also called Ab 1A3
B13: 1C6 (antibody, V domains shown)
VH: QVQLVQSGGEVKKPGASVKVSCKASGYTLSSHGITWVRQAPGQGLEWMGWISAHNGHASNAQKVEDRVTMTTDTSTNTAYMELRSLTPDDTAVYYCARVHAALYYGMDVWGQGTLVTVSS
VL: LPVLTQPPSVSVAPGQTARITCGGNNIGSKSVHWYQQKPGQAPVLVVYDDSDRPSGIPERFSGSNSGNTATLTINRVEAGDEADYYCQVWDSSSDHWVFGGGTKLTVL
notes: anti-PD-L1 clone; also called Ab 1C6
B14: 1F1 (antibody, V domains shown)
VH: QVQLVQSGGEVKKPGASVKVSCKASGYTLSSHGITWVRQAPGQGLEWMGWISAHNGHASNAQKVEDRVTMTTDTSTNTAYMELRSLTPDDTAVYYCARVHAALYYGMDVWGQGTLVTVSS
VL: QPVLTQPPSVSVAPGQTARITCGGDNIGSKGVHWLQQKPGQAPVLVVYDDRDRPSGIPERFSGSNSGSTATLTISRVEAGDEADYYCQVWDSSSDHWVFGGGTKLTVL
notes: anti-PD-L1 clone; also called Ab 1F1
B15: 1G1 (antibody, V domains shown)
VH: EVQLVQSGAEVKKPGSSVRVSCKASGGTFSSYAISWVRQAPGQGLEWMGRIIPILGIANYAQKFQGRVTITADKSTSTAYMELSSLRSEDTAVYYCASGSIVGAAYAFDIWGQGTTVTVSS
VL: QSVLTQPPSVSVAPGKAANLNCGGKNIGGRVVHWYQQRPGQAPVLVIYDDTDRPSGIPERFSGSNSGNTATLTITDVEVGDEADYYCQVWDSRSDHPVFGGGTTLTVL
notes: anti-PD-L1 clone; also called Ab 1G1
B16: 1D2 (antibody, V domains shown)
VH: QVQLVQSGAEVKKPGSSVKVSCKASGGTFSSYAISWVRQAPGQGLEWMGGIIPIFGTANYAQKFQGRVTITADESTSTAYMELSSLRSEDTAVYYCARDGSGYDSAGMDDWGQGTLVTVSS
VL: QPGLTQPPSASGTPGQTVTISCSGSRSNIGSNYVYWYQQFPGTAPKLLIFSNNQRPSGVPDRFSGSKSGTSASLAISGLRSEDEADYYCAVWDDSLSGVVFGGGTKLTVL
notes: anti-PD-L1 clone; also called Ab 1D2

By Kd is commonly meant the equilibrium constant for the complex coming apart. Low values mean higher affinity, high ones lower affinity. A word on the koff: it is the rate constant with which the complex falls apart. A lower koff goes with a long-lived complex. In general, kon refers to a measure of how fast the partners come together. Read a high kon as faster complex formation. Broadly, the EC50 (read off the curve) is the midpoint of the concentration-response curve. A high value points to weaker potency.

Sequence of PD-L1 (antigen of the kinetic measurements) (Q9NZQ7 19-238 limits assumed): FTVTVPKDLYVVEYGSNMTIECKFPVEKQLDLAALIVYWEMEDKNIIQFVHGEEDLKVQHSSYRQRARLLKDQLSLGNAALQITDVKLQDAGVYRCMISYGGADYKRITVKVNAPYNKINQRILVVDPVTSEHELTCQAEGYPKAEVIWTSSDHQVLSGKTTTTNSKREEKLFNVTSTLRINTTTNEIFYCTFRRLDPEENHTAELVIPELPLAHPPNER

One test has as its target PD-L1 (antigen of the kinetic measurements) (human, UniProt Q9NZQ7). Nature of the test: kinetic measurements for aPDL1 antibodies; instrument and antigen format not stated.
With B1, the Kd was 1.57 nM.

In the case of B2, binding was characterised by a dissociation constant (Kd) of 0.287 nM, the off-rate (koff) was determined as 0.000367 s⁻¹ and the kon turned out to be 1.28e+06 M⁻¹ s⁻¹.

B3 showed a Kd of 1.16 nM.

Molecule B4 came in with a Kd of 1.23 nM, a koff of 0.000987 s⁻¹ and a kon of 802000 M⁻¹ s⁻¹.

For B5, binding was put at a Kd of 0.669 nM, the koff is 0.00124 s⁻¹ and the kon came to 1.85e+06 M⁻¹ s⁻¹.

For the molecule B6, the affinity, expressed as Kd, was 1.03 nM.

In the case of B7, the Kd amounted to 913 nM, the koff came to 0.0113 s⁻¹ and the kon came to 12400 M⁻¹ s⁻¹.

As to B8, the Kd stood at 1.91 nM.

As to B9, binding was put at a Kd of 0.609 nM, the koff stood at 0.000745 s⁻¹ and the kon is 1.22e+06 M⁻¹ s⁻¹.

In turn, B10 came in with a Kd of 8.98 nM, a koff of 0.00884 s⁻¹ and a kon of 984000 M⁻¹ s⁻¹.

As to B11, binding was put at a Kd of 0.679 nM.

B12: the Kd turned out to be 873 nM, the koff amounted to 0.0115 s⁻¹ and the kon came out at 13100 M⁻¹ s⁻¹.

The molecule B13 gave a Kd of 41.6 nM, a koff of 0.01 s⁻¹ and a kon of 241000 M⁻¹ s⁻¹.

In the case of B14, the Kd is 0.461 nM, the koff is 0.000338 s⁻¹ and the kon amounted to 733000 M⁻¹ s⁻¹.

In turn, B15 showed a Kd of 0.878 nM.

B16 had a Kd of 0.989 nM, a koff of 0.00133 s⁻¹ and a kon of 1.35e+06 M⁻¹ s⁻¹.

The target in another test is T1, PD-L1 (on 293T cells stably expressing PD-L1) (human, UniProt Q9NZQ7).
T1 construct: expressed on the surface of stably transfected 293T cells; also called CD274; B7-H1
T1 sequence (Q9NZQ7 19-290 limits assumed): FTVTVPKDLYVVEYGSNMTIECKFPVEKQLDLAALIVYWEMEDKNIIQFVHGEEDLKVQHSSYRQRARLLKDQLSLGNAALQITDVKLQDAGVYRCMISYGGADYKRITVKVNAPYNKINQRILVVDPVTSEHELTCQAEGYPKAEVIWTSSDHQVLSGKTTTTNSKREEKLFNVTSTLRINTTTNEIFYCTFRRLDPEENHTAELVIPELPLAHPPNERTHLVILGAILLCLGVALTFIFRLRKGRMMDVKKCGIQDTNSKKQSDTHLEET
Nature of the test: flow cytometry on 293T cells stably expressing PD-L1, percent of cells labelled, anti-hFc secondary.
Regarding B6, the “EC50 (read off the curve)” value lay in the range of 0.2 to 0.3 nM.

Turning to B15, the “EC50 (read off the curve)” value is around 0.05 nM.

Take B16: the “EC50 (read off the curve)” value was around 0.1 nM.

Values taken from patent US20230127123A1 (Dana-Farber, published 2023).
